Experimental findings from US20050282743A1, “Molecular interactions in cells” (Arbor Vita Corporation, priority 2001, published 2005) are described below.

Test in all cases: G' assay (10 uM PL peptide), results of TABLE 7 and TABLE 12
Format in all cases: binding

The target of experiment [1] is T1, PDZ protein (GST-PDZ fusion) (Homo sapiens, UniProt O75970).
T1 construct: made in house; host or cells: E. coli (DH5alpha, BL21 or JM109)
As to conditions: PDZ MUPP-1, PDZ Domain 10. A digest of the protocol: (§1)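 Same steps as the G-zero format, apart from a peptide concentration of 10 uM in place of 20 uM in step 2. Amino-terminally biotinylated PL peptides bind GST-PDZ fusions, and retained peptide is quantified by 450 nm absorbance.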

For experiment [2], the target named is T2, PDZ protein (GST-PDZ fusion) (Homo sapiens, UniProt P50479).
T2 construct: made in house; host or cells: E. coli (DH5alpha, BL21 or JM109)
T2 sequence (P50479 1-330): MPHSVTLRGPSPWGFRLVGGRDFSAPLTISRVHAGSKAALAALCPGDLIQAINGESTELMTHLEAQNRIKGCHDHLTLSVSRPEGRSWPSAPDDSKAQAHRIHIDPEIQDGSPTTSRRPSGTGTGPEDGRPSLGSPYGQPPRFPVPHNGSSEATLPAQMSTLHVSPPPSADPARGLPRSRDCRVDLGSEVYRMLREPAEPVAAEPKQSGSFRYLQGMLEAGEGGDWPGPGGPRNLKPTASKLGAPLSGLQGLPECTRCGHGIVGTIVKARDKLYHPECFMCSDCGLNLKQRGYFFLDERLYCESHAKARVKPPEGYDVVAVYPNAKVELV
As to conditions: PDZ LIM RIL, PDZ Domain 1. A digest of the protocol:
as §1

The target of experiment [3] is T3, PDZ protein (GST-PDZ fusion) (Homo sapiens, UniProt Q02410).
T3 construct: made in house; host or cells: E. coli (DH5alpha, BL21 or JM109)
T3 sequence (Q02410 1-837): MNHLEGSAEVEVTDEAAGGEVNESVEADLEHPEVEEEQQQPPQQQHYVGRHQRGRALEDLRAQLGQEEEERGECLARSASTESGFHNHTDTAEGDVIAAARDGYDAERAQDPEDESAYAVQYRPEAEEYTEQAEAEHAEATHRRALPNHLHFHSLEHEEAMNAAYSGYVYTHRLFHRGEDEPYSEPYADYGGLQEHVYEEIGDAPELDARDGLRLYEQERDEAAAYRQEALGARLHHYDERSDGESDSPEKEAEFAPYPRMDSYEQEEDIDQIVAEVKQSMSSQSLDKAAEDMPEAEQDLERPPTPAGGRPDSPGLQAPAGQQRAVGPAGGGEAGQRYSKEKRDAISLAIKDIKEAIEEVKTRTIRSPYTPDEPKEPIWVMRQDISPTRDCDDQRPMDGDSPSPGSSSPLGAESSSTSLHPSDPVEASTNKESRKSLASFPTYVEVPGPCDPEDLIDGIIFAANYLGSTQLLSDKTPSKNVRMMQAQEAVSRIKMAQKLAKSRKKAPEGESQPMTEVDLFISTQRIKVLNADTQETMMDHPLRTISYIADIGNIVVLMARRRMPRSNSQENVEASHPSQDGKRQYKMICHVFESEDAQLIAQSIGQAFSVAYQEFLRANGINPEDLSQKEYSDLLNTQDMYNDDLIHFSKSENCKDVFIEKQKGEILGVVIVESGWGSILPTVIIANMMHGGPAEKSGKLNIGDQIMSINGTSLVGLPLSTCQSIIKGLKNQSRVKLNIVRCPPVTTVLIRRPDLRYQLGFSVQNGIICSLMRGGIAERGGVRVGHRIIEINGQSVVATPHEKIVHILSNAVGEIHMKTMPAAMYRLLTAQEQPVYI
A digest of the protocol:
as §1

Experiment [4] addresses T4, PDZ protein (GST-PDZ fusion) (Homo sapiens, UniProt Q8NI35).
T4 construct: made in house; host or cells: E. coli (DH5alpha, BL21 or JM109)
As to conditions: PDZ INADL, PDZ Domain 8. A digest of the protocol:
as §1

The target of experiment [5] is T5, PDZ protein (GST-PDZ fusion) (Homo sapiens, UniProt O15018).
T5 construct: made in house; host or cells: E. coli (DH5alpha, BL21 or JM109)
As to conditions: PDZ AIPC, PDZ Domain 1. The method in brief: as §1

The target of experiment [6] is T6, PDZ protein (GST-PDZ fusion) (Homo sapiens, UniProt O15085).
T6 construct: made in house; host or cells: E. coli (DH5alpha, BL21 or JM109)
As to conditions: PDZ KIAA0380, PDZ Domain 1. The method in brief:
as §1

Experiment [7] deals with T7, PDZ protein (GST-PDZ fusion) (Homo sapiens, UniProt Q13796).
T7 construct: made in house; host or cells: E. coli (DH5alpha, BL21 or JM109)
As to conditions: PDZ hAPXL, PDZ Domain 1. The method in brief:
as §1

In experiment [8] the target is T8, PDZ protein (GST-PDZ fusion) (Homo sapiens, UniProt Q6P0Q8).
T8 construct: made in house; host or cells: E. coli (DH5alpha, BL21 or JM109)
The method in brief:
as §1

The target of experiment [9] is T9, PDZ protein (GST-PDZ fusion) (Homo sapiens, UniProt Q9Y2H9).
T9 construct: made in house; host or cells: E. coli (DH5alpha, BL21 or JM109)
As to conditions: PDZ KIAA0973, PDZ Domain 1. A digest of the protocol: as §1

Experiment [10] concerns the target T10, PDZ protein (GST-PDZ fusion) (Homo sapiens, UniProt Q13424).
T10 construct: made in house; host or cells: E. coli (DH5alpha, BL21 or JM109)
T10 sequence (Q13424 1-505): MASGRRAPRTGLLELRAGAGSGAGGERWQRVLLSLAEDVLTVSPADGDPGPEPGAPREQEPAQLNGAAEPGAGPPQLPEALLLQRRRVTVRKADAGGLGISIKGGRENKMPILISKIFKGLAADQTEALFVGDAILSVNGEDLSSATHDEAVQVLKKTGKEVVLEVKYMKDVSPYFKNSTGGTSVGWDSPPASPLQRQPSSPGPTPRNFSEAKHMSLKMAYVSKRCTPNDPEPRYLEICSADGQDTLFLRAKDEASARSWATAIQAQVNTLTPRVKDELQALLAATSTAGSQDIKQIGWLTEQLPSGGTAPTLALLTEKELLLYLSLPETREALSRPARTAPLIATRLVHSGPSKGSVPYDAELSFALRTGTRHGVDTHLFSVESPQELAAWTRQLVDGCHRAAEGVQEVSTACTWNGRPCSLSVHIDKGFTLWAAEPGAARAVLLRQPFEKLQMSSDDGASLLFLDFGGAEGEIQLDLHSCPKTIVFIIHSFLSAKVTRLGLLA
As to conditions: PDZ Synt. 1 alpha, PDZ Domain 1. A digest of the protocol: as §1

Experiment [11] concerns the target T11, PDZ protein (GST-PDZ fusion) (Homo sapiens, UniProt Q5T2W1).
T11 construct: made in house; host or cells: E. coli (DH5alpha, BL21 or JM109)
T11 sequence (Q5T2W1 1-519): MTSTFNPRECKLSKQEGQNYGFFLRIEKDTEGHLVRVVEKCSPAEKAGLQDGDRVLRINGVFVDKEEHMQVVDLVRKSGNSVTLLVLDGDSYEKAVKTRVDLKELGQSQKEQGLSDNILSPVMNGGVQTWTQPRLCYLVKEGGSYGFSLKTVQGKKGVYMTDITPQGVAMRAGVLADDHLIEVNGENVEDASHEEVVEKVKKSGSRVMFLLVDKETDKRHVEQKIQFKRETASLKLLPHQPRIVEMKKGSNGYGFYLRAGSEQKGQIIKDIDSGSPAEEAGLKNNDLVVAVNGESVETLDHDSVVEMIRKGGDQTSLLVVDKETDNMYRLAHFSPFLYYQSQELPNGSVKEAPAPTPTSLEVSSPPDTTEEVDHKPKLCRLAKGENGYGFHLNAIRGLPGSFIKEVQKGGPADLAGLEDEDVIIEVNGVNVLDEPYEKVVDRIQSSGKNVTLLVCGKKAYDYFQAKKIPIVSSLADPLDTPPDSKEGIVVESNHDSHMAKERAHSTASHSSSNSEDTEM
As to conditions: PDZ PDZK1, PDZ Domain 2, 3, 4. A digest of the protocol: as §1

For experiment [12], the system named is PDZ protein (GST-PDZ fusion). As to conditions: PDZ SHANK, PDZ Domain 1. A digest of the protocol: as §1

Ends that are not written are not given here. * marks the point of attachment. Biotin = O=C1N[C@H]2[C@H](CS[C@H]2CCCCC(=O)*)N1

T8 sequence (Q6P0Q8 whole entry, the tested form may be a part): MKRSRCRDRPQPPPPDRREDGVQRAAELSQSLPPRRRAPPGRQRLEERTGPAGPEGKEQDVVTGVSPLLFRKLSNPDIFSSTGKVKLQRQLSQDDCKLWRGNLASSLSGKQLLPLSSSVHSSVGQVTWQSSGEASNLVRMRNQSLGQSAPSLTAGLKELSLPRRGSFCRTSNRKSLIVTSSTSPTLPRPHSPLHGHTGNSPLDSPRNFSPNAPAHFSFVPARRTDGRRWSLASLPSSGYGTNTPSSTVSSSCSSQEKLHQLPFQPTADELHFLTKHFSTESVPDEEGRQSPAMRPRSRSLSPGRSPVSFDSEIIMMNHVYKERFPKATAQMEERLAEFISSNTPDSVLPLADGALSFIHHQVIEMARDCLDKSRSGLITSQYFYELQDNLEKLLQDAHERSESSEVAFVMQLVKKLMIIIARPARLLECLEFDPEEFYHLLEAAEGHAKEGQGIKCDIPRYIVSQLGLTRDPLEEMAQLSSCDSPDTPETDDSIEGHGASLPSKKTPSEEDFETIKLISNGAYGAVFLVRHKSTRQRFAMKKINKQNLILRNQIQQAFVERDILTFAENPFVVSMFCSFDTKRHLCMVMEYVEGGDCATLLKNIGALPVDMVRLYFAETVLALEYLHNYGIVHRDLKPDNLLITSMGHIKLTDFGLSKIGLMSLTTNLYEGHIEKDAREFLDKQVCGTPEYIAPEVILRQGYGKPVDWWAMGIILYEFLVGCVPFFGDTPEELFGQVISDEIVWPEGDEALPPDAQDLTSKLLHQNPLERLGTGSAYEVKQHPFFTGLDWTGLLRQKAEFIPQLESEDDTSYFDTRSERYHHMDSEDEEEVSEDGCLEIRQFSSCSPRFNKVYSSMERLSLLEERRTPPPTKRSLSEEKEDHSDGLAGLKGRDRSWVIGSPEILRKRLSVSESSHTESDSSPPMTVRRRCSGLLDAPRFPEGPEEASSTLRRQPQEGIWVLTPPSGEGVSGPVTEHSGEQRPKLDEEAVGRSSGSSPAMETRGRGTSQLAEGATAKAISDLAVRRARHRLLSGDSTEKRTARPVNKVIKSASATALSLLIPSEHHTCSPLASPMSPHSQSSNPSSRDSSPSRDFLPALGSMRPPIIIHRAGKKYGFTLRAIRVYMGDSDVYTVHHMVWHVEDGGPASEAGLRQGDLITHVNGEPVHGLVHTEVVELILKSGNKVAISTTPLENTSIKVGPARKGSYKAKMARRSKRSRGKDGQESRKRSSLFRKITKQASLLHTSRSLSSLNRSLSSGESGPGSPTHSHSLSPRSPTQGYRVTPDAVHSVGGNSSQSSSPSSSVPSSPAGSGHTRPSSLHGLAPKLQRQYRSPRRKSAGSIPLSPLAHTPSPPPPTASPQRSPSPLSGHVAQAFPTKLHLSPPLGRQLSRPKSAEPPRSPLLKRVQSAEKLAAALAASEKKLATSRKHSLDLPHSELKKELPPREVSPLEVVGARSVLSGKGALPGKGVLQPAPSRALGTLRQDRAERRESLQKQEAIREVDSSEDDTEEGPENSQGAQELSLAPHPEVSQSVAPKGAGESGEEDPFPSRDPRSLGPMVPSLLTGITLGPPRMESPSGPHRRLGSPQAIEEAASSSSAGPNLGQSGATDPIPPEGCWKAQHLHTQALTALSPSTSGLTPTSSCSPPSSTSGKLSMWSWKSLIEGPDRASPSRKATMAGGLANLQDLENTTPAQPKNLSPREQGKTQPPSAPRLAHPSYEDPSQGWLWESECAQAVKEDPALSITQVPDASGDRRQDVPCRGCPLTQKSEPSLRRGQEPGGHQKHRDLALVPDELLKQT
T7 sequence (Q13796 whole entry, the tested form may be a part): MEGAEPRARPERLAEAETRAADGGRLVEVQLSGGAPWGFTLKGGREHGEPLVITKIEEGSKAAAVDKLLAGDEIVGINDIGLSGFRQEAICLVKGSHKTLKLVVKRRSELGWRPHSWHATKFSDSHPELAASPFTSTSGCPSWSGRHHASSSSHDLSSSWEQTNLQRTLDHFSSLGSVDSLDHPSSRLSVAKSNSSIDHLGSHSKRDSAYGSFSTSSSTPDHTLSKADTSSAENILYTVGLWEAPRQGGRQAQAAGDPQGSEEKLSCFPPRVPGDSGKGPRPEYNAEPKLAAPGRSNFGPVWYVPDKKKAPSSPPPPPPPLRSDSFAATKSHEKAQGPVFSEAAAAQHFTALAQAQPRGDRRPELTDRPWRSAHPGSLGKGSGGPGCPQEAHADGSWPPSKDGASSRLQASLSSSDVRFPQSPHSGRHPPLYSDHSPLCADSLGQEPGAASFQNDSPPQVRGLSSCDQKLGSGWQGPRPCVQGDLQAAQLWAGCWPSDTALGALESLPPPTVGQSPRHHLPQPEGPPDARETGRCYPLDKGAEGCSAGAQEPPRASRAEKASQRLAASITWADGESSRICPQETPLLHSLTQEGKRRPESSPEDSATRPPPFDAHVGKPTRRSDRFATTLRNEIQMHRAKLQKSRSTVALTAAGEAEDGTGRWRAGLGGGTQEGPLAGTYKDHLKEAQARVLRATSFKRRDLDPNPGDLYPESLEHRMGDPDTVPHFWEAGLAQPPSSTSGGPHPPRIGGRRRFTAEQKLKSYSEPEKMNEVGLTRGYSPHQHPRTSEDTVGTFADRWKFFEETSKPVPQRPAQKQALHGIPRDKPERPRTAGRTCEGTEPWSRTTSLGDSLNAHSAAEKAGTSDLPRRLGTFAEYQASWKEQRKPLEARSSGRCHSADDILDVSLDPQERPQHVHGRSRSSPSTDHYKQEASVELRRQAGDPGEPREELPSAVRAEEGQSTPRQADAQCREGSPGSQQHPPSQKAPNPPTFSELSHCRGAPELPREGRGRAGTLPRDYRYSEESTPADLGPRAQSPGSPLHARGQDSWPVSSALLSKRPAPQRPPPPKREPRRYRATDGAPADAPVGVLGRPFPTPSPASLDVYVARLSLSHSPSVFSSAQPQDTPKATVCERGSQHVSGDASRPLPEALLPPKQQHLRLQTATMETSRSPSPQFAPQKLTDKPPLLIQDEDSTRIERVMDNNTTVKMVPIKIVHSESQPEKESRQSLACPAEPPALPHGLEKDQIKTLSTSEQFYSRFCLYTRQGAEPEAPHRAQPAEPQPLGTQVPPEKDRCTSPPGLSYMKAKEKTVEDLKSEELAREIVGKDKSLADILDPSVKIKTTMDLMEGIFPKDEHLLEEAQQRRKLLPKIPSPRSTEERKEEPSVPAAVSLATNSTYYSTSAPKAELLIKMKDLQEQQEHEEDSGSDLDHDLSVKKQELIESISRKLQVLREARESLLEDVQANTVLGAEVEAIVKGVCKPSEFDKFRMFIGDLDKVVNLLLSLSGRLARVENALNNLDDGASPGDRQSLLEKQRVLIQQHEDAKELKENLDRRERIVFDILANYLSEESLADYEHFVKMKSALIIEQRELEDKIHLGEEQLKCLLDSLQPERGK
T6 sequence (O15085 whole entry, the tested form may be a part): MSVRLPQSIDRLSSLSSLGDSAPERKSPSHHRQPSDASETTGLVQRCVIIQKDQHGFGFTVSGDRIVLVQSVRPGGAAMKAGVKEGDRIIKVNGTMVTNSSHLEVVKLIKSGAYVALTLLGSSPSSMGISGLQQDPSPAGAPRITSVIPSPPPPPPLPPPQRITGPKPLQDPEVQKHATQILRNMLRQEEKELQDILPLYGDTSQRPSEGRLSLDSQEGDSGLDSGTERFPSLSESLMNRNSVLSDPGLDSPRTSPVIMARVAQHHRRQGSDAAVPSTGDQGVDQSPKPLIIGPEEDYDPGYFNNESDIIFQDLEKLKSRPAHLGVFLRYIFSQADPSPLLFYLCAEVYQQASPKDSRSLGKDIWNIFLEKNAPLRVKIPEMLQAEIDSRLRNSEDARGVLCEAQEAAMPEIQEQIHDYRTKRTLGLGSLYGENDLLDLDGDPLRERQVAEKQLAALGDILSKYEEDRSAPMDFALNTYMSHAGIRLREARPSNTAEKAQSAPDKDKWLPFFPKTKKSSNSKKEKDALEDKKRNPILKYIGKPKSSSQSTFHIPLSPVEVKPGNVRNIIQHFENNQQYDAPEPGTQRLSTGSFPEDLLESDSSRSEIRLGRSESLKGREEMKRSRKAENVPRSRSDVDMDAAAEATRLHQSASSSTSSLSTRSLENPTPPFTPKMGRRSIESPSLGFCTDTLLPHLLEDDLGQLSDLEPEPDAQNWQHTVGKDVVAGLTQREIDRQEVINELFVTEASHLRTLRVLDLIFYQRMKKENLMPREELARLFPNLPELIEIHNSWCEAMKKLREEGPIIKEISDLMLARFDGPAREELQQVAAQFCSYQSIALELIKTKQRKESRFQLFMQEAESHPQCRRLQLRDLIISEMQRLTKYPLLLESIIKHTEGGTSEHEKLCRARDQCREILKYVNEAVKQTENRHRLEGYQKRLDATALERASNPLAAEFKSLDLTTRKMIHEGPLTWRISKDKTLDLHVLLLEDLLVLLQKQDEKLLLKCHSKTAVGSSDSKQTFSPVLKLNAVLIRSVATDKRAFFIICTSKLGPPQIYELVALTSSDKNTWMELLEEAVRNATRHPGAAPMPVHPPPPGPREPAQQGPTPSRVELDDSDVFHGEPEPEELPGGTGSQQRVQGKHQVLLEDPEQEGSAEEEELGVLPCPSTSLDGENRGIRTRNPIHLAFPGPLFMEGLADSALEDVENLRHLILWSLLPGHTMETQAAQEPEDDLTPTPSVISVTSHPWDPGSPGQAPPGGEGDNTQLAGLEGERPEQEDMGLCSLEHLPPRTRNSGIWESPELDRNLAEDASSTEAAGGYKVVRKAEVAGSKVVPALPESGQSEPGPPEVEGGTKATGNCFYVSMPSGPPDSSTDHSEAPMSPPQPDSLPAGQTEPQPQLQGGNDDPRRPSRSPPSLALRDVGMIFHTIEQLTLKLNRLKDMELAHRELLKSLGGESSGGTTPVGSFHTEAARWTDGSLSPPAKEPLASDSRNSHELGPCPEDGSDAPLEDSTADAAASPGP

As to “INSVGSTASSSQPLLVHDDV (Biotin-INSVGSTASSSQPLLVHDDV) [c-kit receptor]”, the Classification is recorded as 1 (A450 nm 0-1) in experiment [1]; 1 (A450 nm 0-1) in experiment [2]; 1 (A450 nm 0-1) in experiment [3] (PDZ Mint 1, PDZ Domain 2); 1 (A450 nm 0-1) in [4].

For “SSKSKSSEESQTFFGLYKL (Biotin-SSKSKSSEESQTFFGLYKL) [Fas Ligand]”, the Classification in [5] is 2 (A450 nm 1-2); in experiment [6] it was 3 (A450 nm 2-3); in [3] (PDZ Mint 1, PDZ Domain 1, 2), 4 (A450 nm 3-4); in experiment [7], 2 (A450 nm 1-2); in experiment [8] (PDZ KIAA807) it was 5 (A450 nm of 4 more than 2× repeated); in [8] (PDZ KIAA0807(S), PDZ Domain 1) it was 5 (A450 nm of 4 more than 2× repeated). Besides, the Classification in experiment [9] is 2 (A450 nm 1-2).

For “DAKLKSDGTIAAITEKETHF (Biotin-DAKLKSDGTIAAITEKETHF) [GABA transporter 3]”, the Classification in experiment [10] is 1 (A450 nm 0-1); in experiment [7] it was 1 (A450 nm 0-1); in experiment [11], 1 (A450 nm 0-1); in experiment [8] (PDZ KIAA807), 1 (A450 nm 0-1); in experiment [8] (PDZ KIAA0807(S), PDZ Domain 1), 1 (A450 nm 0-1); in [12] it was 1 (A450 nm 0-1).
